From US12545899B2, “Luciferase enzymes for use with thermostable luciferins in bioluminescent assays” (Promega Corporation, priority 2018, dated 2026)

B1: ATG-2877: SEQ ID NO: 5; H244W (protein)
chain: MADKNILYGPEPFYPLEDGTAGEQMFDALSRYAAIPGCIALTNAHTKENVLYEEFLKLSCRLAESFKKYGLKQNDTIAVCSENSLQFFLPVIASLYLGIIVAPVNDKYIERELIHSLGIVKPRIVFCSKNTFQKVLNVKSKLKSIETIIILDLNEDLGGYQCLNNFISQNSDSNLDVKKFKPYSFNRDDQVASIMFSSGTTGLPKGVMLTHKNIVARFSIAKDPTFGNAINPTSAILTVIPFHWGFGMMTTLGYFTCGFRVVLMHTFEEKLFLQSLQDYKVESTLLVPTLMAFLAKSALVEKYDLSHLKEIASGGAPLSKEIGEMVKKRFKLNFVRQGYGLTETTSAVLITPKGDAKPGSTGKIVPLHAVKVVDPTTGKILGPNEPGELYFKGPMIMKGYYNNEEATKAIIDNDGWLRSGDIAYYDNDGHFYIVDRLKSLIKYKGYQVAPAEIEGILLQHPYIVDAGVTGIPDEAAGELPAAGVVVQTGKYLNEQIVQDYVASQVSTAKWLRGGVKFLDEIPKGSTGKIDRKVLRQMLEKHTNGHHHHHHHH
B2: C7573G10: SEQ ID NO: 69; H244W+T344A+I396K+S193A+N228D+L305F+S306P+I109V+A316M (protein)
chain: MADKNILYGPEPFYPLEDGTAGEQMFDALSRYAAIPGCIALTNAHTKENVLYEEFLKLSCRLAESFKKYGLKQNDTIAVCSENSLQFFLPVIASLYLGIIVAPVNDKYIERELIHSLGIVKPRIVFCSKNTFQKVLNVKSKLKSIETIIILDLNEDLGGYQCLNNFISQNSDSNLDVKKFKPYSFNRDDQVAAIMFSSGTTGLPKGVMLTHKNIVARFSIAKDPTFGNAINPTSAILTVIPFHHGFGMMTTLGYFTCGFRVVLMHTFEEKLFLQSLQDYKVESTLLVPTLMAFLAKSALVEKYDLSHLKEIASGGAPLSKEIGEMVKKRFKLNFVRQGYGLTETTSAVLITPKGDAKPGSTGKIVPLHAVKVVDPTTGKILGPNEPGELYFKGPMIMKGYYNNEEATKAIIDNDGWLRSGDIAYYDNDGHFYIVDRLKSLIKYKGYQVAPAEIEGILLQHPYIVDAGVTGIPDEAAGELPAAGVVVQTGKYLNEQIVQDYVASQVSTAKWLRGGVKFLDEIPKGSTGKIDRKVLRQMLEKHTNGHHHHHHHH
B3: C7584F2: SEQ ID NO: 73; H244W+T344A+I396K+S193A+N228D+L305F+S306P+I109V+A344I (protein)
chain: MADKNILYGPEPFYPLEDGTAGEQMFDALSRYAAIPGCIALTNAHTKENVLYEEFLKLSCRLAESFKKYGLKQNDTIAVCSENSLQFFLPVIASLYLGIIVAPVNDKYIERELIHSLGIVKPRIVFCSKNTFQKVLNVKSKLKSIETIIILDLNEDLGGYQCLNNFISQNSDSNLDVKKFKPYSFNRDDQVASIMFSSGTTGLPKGVMLTHKNIVARFSIAKDPTFGNAINPTSAILTVIPFHHGFGMMTTLGYFTCGFRVVLMHTFEEKLFLQSLQDYKVESTLLVPTLMAFLAKSALVEKYDLSHLKEIASGGAPLSKEIGEMVKKRFKLNFVRQGYGLTEATSAVLITPKGDAKPGSTGKIVPLHAVKVVDPTTGKILGPNEPGELYFKGPMIMKGYYNNEEATKAIIDNDGWLRSGDIAYYDNDGHFYIVDRLKSLIKYKGYQVAPAEIEGILLQHPYIVDAGVTGIPDEAAGELPAAGVVVQTGKYLNEQIVQDYVASQVSTAKWLRGGVKFLDEIPKGSTGKIDRKVLRQMLEKHTNGHHHHHHHH
B4: C7579E3: SEQ ID NO: 71; H244W+T344A+I396K+S193A+N228D+L305F+S306P+I109V+Y339M (protein)
chain: MADKNILYGPEPFYPLEDGTAGEQMFDALSRYAAIPGCIALTNAHTKENVLYEEFLKLSCRLAESFKKYGLKQNDTIAVCSENSLQFFLPVIASLYLGIIVAPVNDKYIERELIHSLGIVKPRIVFCSKNTFQKVLNVKSKLKSIETIIILDLNEDLGGYQCLNNFISQNSDSNLDVKKFKPYSFNRDDQVASIMFSSGTTGLPKGVMLTHKNIVARFSIAKDPTFGNAINPTSAILTVIPFHHGFGMMTTLGYFTCGFRVVLMHTFEEKLFLQSLQDYKVESTLLVPTLMAFLAKSALVEKYDLPHLKEIASGGAPLSKEIGEMVKKRFKLNFVRQGYGLTETTSAVLITPKGDAKPGSTGKIVPLHAVKVVDPTTGKILGPNEPGELYFKGPMIMKGYYNNEEATKAIIDNDGWLRSGDIAYYDNDGHFYIVDRLKSLIKYKGYQVAPAEIEGILLQHPYIVDAGVTGIPDEAAGELPAAGVVVQTGKYLNEQIVQDYVASQVSTAKWLRGGVKFLDEIPKGSTGKIDRKVLRQMLEKHTNGHHHHHHHH
B5: C7612E10: SEQ ID NO: 68; H244W+T344A+I396K+S193A+N228D+L305F+S306P+I109V+V348I (protein)
chain: MADKNILYGPEPFYPLEDGTAGEQMFDALSRYAAIPGCIALTNAHTKENVLYEEFLKLSCRLAESFKKYGLKQNDTIAVCSENSLQFFLPVIASLYLGIIVAPVNDKYVERELIHSLGIVKPRIVFCSKNTFQKVLNVKSKLKSIETIIILDLNEDLGGYQCLNNFISQNSDSNLDVKKFKPYSFNRDDQVASIMFSSGTTGLPKGVMLTHKNIVARFSIAKDPTFGNAINPTSAILTVIPFHHGFGMMTTLGYFTCGFRVVLMHTFEEKLFLQSLQDYKVESTLLVPTLMAFLAKSALVEKYDLSHLKEIASGGAPLSKEIGEMVKKRFKLNFVRQGYGLTETTSAVLITPKGDAKPGSTGKIVPLHAVKVVDPTTGKILGPNEPGELYFKGPMIMKGYYNNEEATKAIIDNDGWLRSGDIAYYDNDGHFYIVDRLKSLIKYKGYQVAPAEIEGILLQHPYIVDAGVTGIPDEAAGELPAAGVVVQTGKYLNEQIVQDYVASQVSTAKWLRGGVKFLDEIPKGSTGKIDRKVLRQMLEKHTNGHHHHHHHH
B6: MK0136: SEQ ID NO: 104; H244W+S193A+N228D+L305F+S306P+I109V+C38R+F55I+Y108F+A316W+Y339M (protein)
chain: MADKNILYGPEPFYPLEDGTAGEQMFDALSRYAAIPGRIALTNAHTKENVLYEEILKLSCRLAESFKKYGLKQNDTIAVCSENSLQFFLPVIASLYLGIIVAPVNDKFVERELIHSLGIVKPRIVFCSKNTFQKVLNVKSKLKSIETIIILDLNEDLGGYQCLNNFISQNSDSNLDVKKFKPYSFNRDDQVAAIMFSSGTTGLPKGVMLTHKNIVARFSIAKDPTFGDAINPTSAILTVIPFHWGFGMMTTLGYFTCGFRVVLMHTFEEKLFLQSLQDYKVESTLLVPTLMAFLAKSALVEKYDFPHLKEIASGGWPLSKEIGEMVKKRFKLNFVRQGMGLSETTSAILITPKGDAKPGSTGKIVPLHAVKVVDPTTGKILGPNEPGELYFKGPMIMKGYYNNEEATKAIIDNDGWLRSGDIAYYDNDGHFYIVDRLKSLIKYKGYQVAPAEIEGILLQHPYIVDAGVTGIPDEAAGELPAAGVVVQTGKYLNEQIVQDYVASQVSTAKWLRGGVKFLDEIPKGSTGKIDRKVLRQMLEKHTNGHHHHHHHH
B7: MK0138: SEQ ID NO: 106; H244W+S193A+N228D+L305F+S306P+I109V+C38R+F55I+Y108F+A316W+Y339M+T3441+I396K (protein)
chain: MADKNILYGPEPFYPLEDGTAGEQMFDALSRYAAIPGRIALTNAHTKENVLYEEILKLSCRLAESFKKYGLKQNDTIAVCSENSLQFFLPVIASLYLGIIVAPVNDKYVERELIHSLGIVQPRIVFCSKNTFQKVLNVKSKLKSIETIIILDLNEDLGGYQCLNNFISQNSDSNLDVKKFKPYSFNRDDQVAAIMFSSGTTGLPKGVMLTHKNIVARFSIAKDPTFGDAINPTSAILTVIPFHWGFGMMTTLGYFTCGFRVVLMHTFEEKLFLQSLQDYKVESTLLVPTLMAFLAKSALVEKYDFPHLKEIASGGWPLSKEIGEMVKKRFKLNFVRQGMGLTEITSAILITPKGDAKPGSTGKIVPLHAVKVVDPTTGKILGPNEPGELYFKGPMKMKGYYNNEEATKAIIDNDGWLRSGDIAYYDNDGHFYIVDRLKSLIKYKGYQVAPAEIEGILLQHPYIVDAGVTGIPDEAAGELPAAGVVVQTGKYLNEQIVQDYVASQVSTAKWLRGGVKFLDEIPKGSTGKIDRKVLRQMLEKHTNGHHHHHHHH

How the values were obtained:
[1] = Differential scanning fluorimetry (DSF) analysis; type: physicochemical; design: key to DSF Tm: melting temperature in °C (heated 30-95 °C at 1 °C/min); details: for DSF Tm: Table 7A; for DSF Tm (° C.): Table 9B
Method: To conduct the experiment, Sypro Orange (5000×) was diluted in water to 3× and combined with enzymes stored in 50 mM HEPES pH 7.5, 100 mM NaCl, 2 mM EDTA to a final concentration of 5×. Fluorescence was read at 60 second intervals as the reactions were heated at 1° C. per minute from 30-95° C. The change in fluorescence at each minute was calculated and plotted for each temperature in the range.
The luciferase enzyme variants generated were also evaluated using DSF analysis as shown in the representative results provided in Tables 7A and 7B above. To conduct the experiments, Sypro Orange (5000×) was diluted in water to 3× and combined with enzymes stored in 20 mM HEPES pH 7.5, 200 mM NaCl, 1 mM EDTA to a final concentration of 5×. Fluorescence was read at 60 second intervals as the reactions were heated at 1° C. per minute from 30-95° C. The change in fluorescence at each minute was calculated and plotted for each temperature in the range.

[2] = Brightness of additional luciferase enzyme variants with CS0333; type: biochemical; details: Table 7A, 1 mM CS0333; for Fold-improvement over ATG3707, CS0333 BG: Bright-Glo buffer; for Fold-improvement over ATG3707, CS0333 DR: Detection Reagent buffer
Method: (§1) Additional luciferase enzyme variants were generated and evaluated for their stability and activity. To evaluate the additional luciferase enzyme variants, 0.005 mg/ml luciferase enzyme variant was mixed with 1 mM ATP+1 mM substrate in either Bright-Glo™ (BG) or Detection Reagent (DR) buffers. […] (Table 7A is colored according to their relative luminescence values within each column across a red to green color spectrum with the lowest values colored red and the highest values colored green.)

[3] = Brightness of additional luciferase enzyme variants with CS0280; type: biochemical; details: Table 7A, 1 mM CS0280; for Fold-improvement over ATG3707, CS0280 BG: Bright-Glo buffer; for Fold-improvement over ATG3707, CS0280 DR: Detection Reagent buffer
Method: as §1

Row | Molecule | transition melting temperature by DSF ([1]; compared with Ppe variant (SEQ ID NO: 1), FIG. 29) | Fold-improvement over ATG3707, CS0333 BG [2] | Fold-improvement over ATG3707, CS0333 DR [2] | Fold-improvement over ATG3707, CS0280 BG [3] | Fold-improvement over ATG3707, CS0280 DR [3] | DSF Tm [1] | DSF Tm (° C.) [1] [°C]
1 | B1 | does not alter the transition melting temperature | – | – | – | – | – | –
2 | B2 | – | 2.81 | 2.09 | 14.12 | 19.49 | 62 | –
3 | B3 | – | 2.35 | 2.15 | 2.78 | 2.68 | 65 | –
4 | B4 | – | 1.19 | 1.96 | 3.26 | 3.63 | 55 | –
5 | B5 | – | 2.28 | 2.27 | 2.22 | 2.02 | 63 | –
6 | B6 | – | – | – | – | – | – | 71
7 | B7 | – | – | – | – | – | – | 58
